Test [1] deals with HSP70 (antigen; source and nucleotide state not stated) (Homo sapiens (Human)) (UniProt P0DMV8). Kind of test: Octet epitope binning, sandwich format on HSP70; table row C92F3-5, column C92F3-5 (self pair). Background: BLI is a label-free optical method that tracks binding on a fibre tip over time.
Test [2] has the same target. Kind of test: Octet epitope binning, sandwich format on HSP70; table row m77A (named as competitor), column C92F3-5; the sheet does not say which of row and column was loaded first.
The target is the same in test [3]. Kind of test: Octet epitope binning, sandwich format on HSP70; table row N15F2-5 (named as competitor), column C92F3-5; the sheet does not say which of row and column was loaded first.
Test [4] shares this target. Nature of the test: Octet epitope binning, sandwich format on HSP70; table row m77A (named as competitor), column N15F2-5; the sheet does not say which of row and column was loaded first.
Test [5] has the same target. Kind of test: Octet epitope binning, sandwich format on HSP70; table row C92F3-5 (named as competitor), column N15F2-5; the sheet does not say which of row and column was loaded first.
Test [6] shares this target. Nature of the test: Octet epitope binning, sandwich format on HSP70; table row N15F2-5, column N15F2-5 (self pair).

Sequence of HSP70 (antigen; source and nucleotide state not stated) (Homo sapiens (Human)) (P0DMV8 whole entry): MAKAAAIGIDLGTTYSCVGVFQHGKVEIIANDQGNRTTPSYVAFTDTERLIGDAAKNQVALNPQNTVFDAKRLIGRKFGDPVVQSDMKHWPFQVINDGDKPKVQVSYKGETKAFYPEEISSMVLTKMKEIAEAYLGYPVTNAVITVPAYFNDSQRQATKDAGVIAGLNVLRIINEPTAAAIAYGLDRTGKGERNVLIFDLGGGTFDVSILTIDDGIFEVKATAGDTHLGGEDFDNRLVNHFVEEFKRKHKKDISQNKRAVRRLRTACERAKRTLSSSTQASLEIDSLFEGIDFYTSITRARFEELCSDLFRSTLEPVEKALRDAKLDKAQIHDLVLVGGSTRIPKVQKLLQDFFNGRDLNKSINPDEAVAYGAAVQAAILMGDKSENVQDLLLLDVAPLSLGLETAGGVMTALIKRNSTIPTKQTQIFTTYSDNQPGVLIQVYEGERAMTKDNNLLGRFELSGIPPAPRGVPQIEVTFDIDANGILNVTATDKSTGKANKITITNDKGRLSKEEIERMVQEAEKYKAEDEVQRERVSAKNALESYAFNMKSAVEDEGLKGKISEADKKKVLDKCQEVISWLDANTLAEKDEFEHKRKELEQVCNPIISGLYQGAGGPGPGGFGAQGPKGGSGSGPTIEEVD

Turning to C92F3-5 (Fisher Scientific) (antibody), the percent of maximal binding in the presence of the potentially competing antibody in test [1] was 0; in test [2], 0.714; in test [3], 0.492.
For the substance N15F2-5 (Enzo Life Sciences) (antibody), the percent of maximal binding in the presence of the potentially competing antibody in test [4] was found to be 0.738; in test [5], 0.489; in test [6], 0.

For the origin of these results see US20230128075A1.
